The target in assay [1] is T1, PB_(Cdc24) (Saccharomyces cerevisiae, UniProt P11433 668-854).
T1 construct: also called Cdc24 PB domain; source: E. coli BL21DE3, purified (IMAC, optional size exclusion chromatography)
T1 sequence (looked up): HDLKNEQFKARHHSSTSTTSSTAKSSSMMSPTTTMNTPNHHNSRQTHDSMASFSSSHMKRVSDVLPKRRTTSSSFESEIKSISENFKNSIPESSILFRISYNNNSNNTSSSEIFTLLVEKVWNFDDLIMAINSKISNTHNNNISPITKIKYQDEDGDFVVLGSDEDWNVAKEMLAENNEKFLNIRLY
Nature of the assay: SPR; Biacore X100; PB_(Bem1)-SNAP labelled with BG-Biotin and captured on a CM5 chip coated with anti-biotin antibody; PB_(Cdc24) as analyte; HBSEP (10 mM HEPES, 150 mM NaCl, 3 mM EDTA, 0.05% Tween 20, pH 7.4). The note with it: both partners purified. Background: SPR reads the build-up and loss of mass on a sensor chip optically.

Assay [2] addresses T2, PB_(Cdc24)(D833G) (Saccharomyces cerevisiae, UniProt P11433 668-854, D833G).
T2 construct: also called D833G mutant; source: E. coli BL21DE3, purified (IMAC, optional size exclusion chromatography)
T2 sequence (looked up): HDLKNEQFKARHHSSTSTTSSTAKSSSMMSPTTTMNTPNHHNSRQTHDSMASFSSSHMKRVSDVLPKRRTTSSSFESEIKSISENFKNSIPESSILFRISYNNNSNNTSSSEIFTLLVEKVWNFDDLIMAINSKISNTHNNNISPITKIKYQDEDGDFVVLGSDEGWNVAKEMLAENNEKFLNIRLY
The assay is described as above. As to conditions: both partners purified.

B1: PB_(Bem1)-SNAP (domain or fragment, Saccharomyces cerevisiae, UniProt P29366 431-551, looked up)
chain: ASQTSNFASTNQDNTLTGEDLKLNKKLSDLSLSGSKQAPAQSTSGLKTTKIKFYYKDDIFALMLKGDTTYKELRSKIAPRIDTDNFKLQTKLFDGSGEEIKTDSQVSNIIQAKLKISVHDI
modifications: BG-Biotin covalently on the SNAP tag
notes: Bem1, S. cerevisiae, PB domain, residues 431-551; also called Bem1 PB domain; source: E. coli BL21DE3, purified (IMAC, optional size exclusion chromatography)
As a reminder, the Kd is the free concentration of one partner at which half of the binding sites on the other are occupied at equilibrium, for simple one-to-one binding. A higher Kd goes with lower affinity. Turning to B1, the values for the Kd in assay [1] and in assay [2] were 21 nM and more than 3200 nM, respectively.

(Values after PMC5015938, “A Split-Ubiquitin Based Strategy Selecting for Protein Complex-Interfering Mutations” (G3: Genes|Genomes|Genetics, 2016).)
